Measurements from publication PMC10182306.

Target: human platelet actin (human) (UniProt P60709)
Assay: co-sedimentation

percent of input pelleted with F-actin: 77%
Substance: α-actinin (from UniProt P12814 1-892) (natural protein)
